Reference: the DeepSol protein solubility set

Experiment: soluble on expression in E. coli; label from the status in PepcDB or PDB records

Row | Sequence | soluble on expression in E. coli
1 | MGSDKIHHHHHHMSIYHDVIKSEVFPALGCTEPIAVAYAASLAAERLGAEVETVTASVDPGVFKNGFAVTVPKTGGLKGNVIAAALGALIARPELKMEILSGADERLLAQAELLVSSGRATVALVKERTDLYIDVVVTGGGRTARAVLEGGHTNIVRLECDGRILLNADEPVSAVDSHAYRAVLRQMTFSEMIGLLDDLDQGDLVYLKRGVEMNLRIAEEGKQLTKVGHYVEELVRKGFLLADVVSSSKILTASASDARMAGLPYPVMSSGGSGNQGIVAILVPYNVGMFFHVPEETILRSIALSHLVNAYIKCHTGDLAPICGCAIAAGVGAAVAIVYQQAGPDMHKIDLAVNTIISDIGGMLCDGAKGGCALKVVSSTDAAIRAAYMALNGHGISEEEGFVGKSAEETIHNLSRIADKGMALVDDTMLCIMLQKRSTEP | not soluble
2 | LRPVLPTQSAHDPPAVHLSNGPGQEPIAVMTFDLTKITKTSSSFEVRTWDPEGVIFYGDTNPKDDWFMLGLRDGRPEIQLHNHWAQLTVGAGPRLDDGRWHQVEVKMEGDSVLLEVDGEEVLRLRQVSGPLTSKRHPIMRIALGGLLFPASNLRLPLVPALDGCLRRDSWLDKQAEISASAPTSLRSCDVESNPGIFLPPGTQAE | soluble
3 | MKTFIKGLVLSAVVASSQVYAEQTLNVYAWGGYLPEKSLKAFEQQEGVTINYSTFENNESMYTKLKLLKGTGYDVVFASAYFIEKMGREGLLAEIDHNQIPNMKDAMPTVLGLAHDPQNKFSLPYIWGITGLYYNSSTLPNGITKWADLWDKQYEQQVMLIDDIRDVFGMALKLNGFSINTKNEEEIKKAYESLVALKKNVLLYNSDAPHVPYVSGEATLGMQWNGNAYQGQVEMPELKFVMPEEGAVLWMDNFTIPSGSKNIPLAHKFINFMYQPENQAEIVQSLGYASATKGGRALLPAELRDNPTIFPSDEDMKKGEFINDVGPETLAIYEKYWQRLRNQ | not soluble
4 | MGLELRAIQSPIFSEPFDFTFHAQAFTLLVGSSGSGKSSLFQMIAQVSSLPYSGQVLIDGSEVSQLSIVERVQTVGILLQNPNHQFTMESLFEELVFTMENIGYHLQEIDSKIAEVVQQCRCKDILHRLIHHLSGGEKQKAALAVLFAMNPRVYLLDEPFASIDRKSRIEILEILKELVYDGKTVILCDHDLSDYKAYIDHMVELRDGKLREVFQIPSYEMTQVASKEVASSPELFHMNRVTGELGNRPLFSIADFTFYQGISCILGDNGVGKSTLFRSILQFQKYKGSITWKGSVLKKKKSLYRDLTGVVQEAEKQFIRVSLREELQLDGPDSERNQRIFQALRYFDLEQAVDKSPYQLSGGQQKILQLLTILTSKASVILLDEPFAGLDDRACHYFCKWIVEERNQGRSFLLISHRLDPLISVVDYWIEMTSQGLRHVKEVTITKPLTSQSSNTQGEVR | not soluble
5 | MKQHQSADNSQGQLYIVPTPIGNLADITQRALEVLQAVDLIAAEDTRHTGLLLQHFGINARLFALHDHNEQQKAETLLAKLQEGQNIALVSDAGTPLINDPGYHLVRTCREAGIRVVPLPGPCAAITALSAAGLPSDRFCYEGFLPAKSKGRRDALKAIEAEPRTLIFYESTHRLLDSLEDIVAVLGESRYVVLARELTKTWETIHGAPVGELLAWVKEDENRRKGEMVLIVEGHKAQEEDLPADALRTLALLQAELPLKKAAALAAEIHGVKKNALYKYALEQQG | soluble
6 | MADGQVAELLLRRLEASDGGLDSAELAAELGMEHQAVVGAVKSLQALGEVIEAELRSTKHWELTAEGEEIAREGSHEARVFRSIPPEGLAQSELMRLPSGKVGFSKAMSNKWIRVDKSAADGPRVFRVVDSMEDEVQRRLQLVRGGQAEKLGEKERSELRKRKLLAEVTLKTYWVSKGSAFSTSISKQETELSPEMISSGSWRDRPFKPYNFLAHGVLPDSGHLHPLLKVRSQFRQIFLEMGFTEMPTDNFIESSFWNFDALFQPQQHPARDQHDTFFLRDPAEALQLPMDYVQRVKRTHSQGGYGSQGYKYNWKLDEARKNLLRTHTTSASARALYRLAQKKPFTPVKYFSIDRVFRNETLDATHLAEFHQIEGVVADHGLTLGHLMGVLREFFTKLGITQLRFKPAYNPYTEPSMEVFSYHQGLKKWVEVGNSGVFRPEMLLPMGLPENVSVIAWGLSLERPTMIKYGINNIRELVGHKVNLQMVYDSPLCRLDAEPRPPPTQEAA | soluble
7 | MTQLKTQYPSLIIDASFITLAANATVKPQDKTYNTVNLLNRFFLIWLDVASRGLSHHHVLSHPFKDWMTNMLDFPYHHEFIEFLGRWTHILIALPKRHHGQVDTAIPRYLLVTIREKTGIVKLTTVQNTAFTTQSNQLKKQYGQFLLTESNNCCACPGCDRPLILTSGNLAAENYEVSAIEKDKDAEALNLIALCPDGFLTYQADRRKKIVTTLKNVKKILVSAHNSQQAISDMKLDSGIVSVLTSLNKLKCDEYNISYDSKQLTDKISPENNRTLYQLVKNQVIDNYLTIQKIIVNLDKQGKIDYEKIQYQTRSMYKKLKAAKHNNLAIFNTISEKLHLATLQDIYFCQMIVSYFIQKCEVLE | not soluble
8 | MEKYAVILGKNPELSLVELKAFSRRFRLGVRILEERIYGSNKSFAIIQAKEDIEKYFRWIGGSLKLVRLIGEGVDSIRDLEYSKLFTVSVYGRRVDWKEWRRFGSMIKEVFKEKDSAKFFKPANTYAMPSELILKGFPKVKDVVLLFVDDKVLVGETVRVTDPFELKKLDVERPVVRPTISIPPRLARVMVNLSEIRRGNVLDPFCGTGTIVMELTLQGLNAYGTDIEEGRVRDAKKNIDWLRKEFRIRKYPVLKVCDVRRLRKCFPRTRFDAIITEPYMGKPLKYKPSRGEAIKIAKGLDRLYYQAFESFADVLKRGSIIVFVFPAFSLSNGEVYRRNRPWLEELGFKVLYRVSEGEEEHRIVRDIHVIKFIR | soluble
9 | MNDYSTTRDRVEHYFDRTATHTWERLTSSAPVSRIRQTVREGRDTMRAKMLWRLPKDLTGLRVLDAGCGAGQMTAELAARGAQVMAVDISPQLVEIARKRLPPEHQDRVTFASGDMLADDLGRFDYVVAMDSLIYYTDADIAAALDRLGARTRHSVVFTVAPRTPFLMAFWTMGKLFPRSDRSPVMIPHPFQPLNEATGGRLVKVGRVSRGFYISECLEFRPLEHHHHHH | not soluble
10 | GSHMKNPYSNQIEREELILKYLPLVKAIATNIKKHLPEDVDIRDLISYGVIGLIKAVDNLSTENPKRAEAYIKLRIKGAIYDYLRSLDFGSRQVREKERRIKEVVEKLKEKLGREPTDEEVAKELGISTEELFKTLDKINFSYILSLEEVFRDFARDYSELIPSSTNVEEEVIKRELTEKVKEAVSKLPEREKLVIQLIFYEELPAKEVAKILETSVSRVSQLKAKALERLREMLSNPL | soluble
11 | MHEYELNQDLLAENKRLAEKNREALRESGTVAVNIMGAIGSGKTLLIERTIERIGNEVKIGAMLGDVVSKADYERVRRFGIKAEAISTGKECHLDAHMIYHRLKKFSDCDLLLIENVGNLICPVDFDLGENYRVVMVSVTEGDDVVEKHPEIFRVADLIVINKVALAEAVGADVEKMKADAKLINPRAKIIEMDLKTGKGFEEWIDFLRGILNVHSDSGQN | not soluble
12 | MGSDKIHHHHHHMNSLLASIDSSRAMPVLEDITQHEISALKTRFNLADAHTHQDQSDTQRMIVASLPELWYQAQNQTQYQSEQAFIRAFFTFHGQHHALKRHDEIYLVYAASIAMHITATYLRKNTLSVGLIEPCFDNLHDLLKHMEVPMSPLDESLFSSSSEVYANLQKAAIGLDAIFLVDPNNPTGSSLFADGPDTFVEVARYCRDYNKLLILDFCFASFFMAAGRERVDAYAILDDIGTRYLIMEDTGKTWPLQDTKCATLMASKDINAEIYSIVTSVLLNVSPFILNVVTRYIEDSNDDDFNSVRSVLEVNRRRARDCLEGKVLKYMQPMIDTSVAWFEILPAGIDADELQTYLLQWDVYVLPGKYFYWSQPEKGQRYIRLALARKPEEFDAAVQMIAHALEHFHV | not soluble
13 | GPGSMQISPPFCGCLSEMYARSLVKQGAFSCFRSCVRVGSVAIIGGEAHMFKQLYKRDEKLRLYRSLIKGASRFPLRSRRDIVTEEVRSSFRHPLNDSLTNEEVDRKLVLGWERAEAIKTYAQNMYWFHSRDEVSKEMMHHSLERDRQRVREMERCNTVGAAPRKTPEVTEFKSSMYNVHPDYYEKIGQKPLTHTRDIWRARGQYGSDVGGPRQKFFVRRFKALFPQGW | not soluble
14 | MHGIDLHTHSNISDGTLSPSCLVDAAIACGIHTLALTDHDTMDGLETAIQQAQGHDIQIISGAEISSQWSRPNTKKAYGVHIVALNMQNPEPLLDALVIQKNIRAERAQQICQILQQCTGQDIYTDVLLKVEGEPDRITRTHIAKALVEKEIVARPQQAFDRFLKEGKRAYVKFDGLNLADTIRIIHESEGFAILAHPTRYDLSSTNVRYLIELFAKMGGDAVELPPSVDPVSTRQMIDRIIQQFDLKVSIGSDFHGENMPWIKLGHTPQPNPHQTGIWESFR | not soluble
15 | SADEEEEVKPILQKLQELVDQLYSFRDCYFETHSVEDAGRKQQDVRKEMEKTLQQMEEVVGSVQGKAQVLMLTGKALNVTPDYSPKAEELLSKAVKLEPELVEAWNQLGEVYWKKGDVAAAHTCFSGALTHCRNKVSLQNLSMVLRQLRTDTEDEHSHHVMDSVRQAKLAVQMDVHDGRSWYILGNSYLSLYFSTGQNPKISQQALSAYAQAEKVDRKASSNPDLHLNRATLHKYEESYGEALEGFSRAAALDPAWPEPRQREQQLLEFLDRLTSLLESKGKVKTKKLQSMLGSLRPAHLGPCSDGHYQSASGQKVTLELKPLSTLQPGVNSGAVILGKVVFSLTTEEKVPFTFGLVDSDGPCYAVMVYNIVQSWGVLIGDSVAIPEPNLRLHRIQHKGKDYSFSSVRVETPLLLVVNGKPQGSSSQAVATVASRPQCE | soluble
16 | MTAYGHMPGEAIECLSIAVELHKQEVIDAHGQVTIRVGFKIGGGIDQDPTKAPFKYPDSGVYITNVESGSPADVAGLRKHDKILQVNGADFTMMTHDRAVKFIKQSKVLHMLVARADLPPVSLH | not soluble
17 | AVPIAQKSEPHSLSSEALMRRAVSLVTDSTSTFLSQTTYALIEAITEYTKAVYTLTSLYRQYTSLLGKMNSEEEDEVWQVIIGARAEMTSKHQEYLKLETTWMTAVGLSEMAAEAAYQTGADQASITARNHIQLVKLQVEEVHQLSRKAETKLAEAQIEELKQKTQEEGEERAESEQEAYLRED | soluble
18 | DLQTLLDKSFNLIISTLDAKYCKILKLLNDGNFLVEAGVGWKPEDTGKVIKREEASVAGYTVLSKKPINIEDLDKKGSIERMGLYGYSEITHGISVLVGSLEKPYGVLAVHSTRKEKFTKEDACFLKGIASMLSLALERNKVESTL | not soluble
19 | MSGNYDKNNINNFIDKNDEHDMSDILHKINNEEKKYEEIKSYSECLELLYKTHALKLGLDNPKKLNESFGHPCDKYKTIHIAGTNGKGSVCYKIYTCLKIKKFKVGLFSSPHIFSLRERIIVNDEPISEKELIHLVNEVLNKAKKLYINPSFFEIITLVAFLHFLNKKVDYAIIETGIGGRLDATNILTKPEVIVITSIGYDHLNILGDNLPIICNEKIGIFKKDANVVIGPSVAIYKNVFDKAKELNCTIHTVVPEPRGERYNEENSRIALRTLEILNISIDYFLKSIIPIKPPLRIQYLATEQIQHIKKKFSPDNLEHNVQYPLAVILDVGHNETAIDRLCTDINYFHKGQNIRICISITKPRNLSVFHPFIAQFGDTLKDIFYLPSLNERTYDFEEIVEMLNNEEEIKNEIKELILSSSKKVGKWLAHEKQGNINEEDALKLYKRGCIPLIIKNAFLECCKDNSILLVCGTFFVFDEVLNVFDIHSDMQDTIFMNEPS | not soluble
20 | MSLKAIAVDMDGTFLDSKKTYDKPRFEAIFTELRNRDITFIAASGNQYAKLKSIFGDRDMYFISENGAVIYKGNELYNYKSFNRQVFQQVVDYLNMNQSIDQLVICGLKSAYILKHTSEAFKEDTRFYYHQLKEIDSLQQLPEDDYVKIAFNINRETHPNVDEEVATQFSNDIKLVSSGHDSIDIIMPNMTKGQALKRLLDKWEMSPSELMAFGDANNDKDMLAFAKHSYVMENSHDEELFNIASAVAPSNDKQGVLTIIEQEVLNKEGHHHHHH | soluble
